Experimental findings from paper PMC8136485, “Were Ancestral Proteins Less Specific?” (Molecular Biology and Evolution, 2021) are described below.

The target of one assay is human S100A6 (human, UniProt P06703 1-90). Kind of assay: fluorescence polarisation; displacement of the 5FAM probe peptide by increasing unlabeled peptide; 2.4-4.2 µM protein (monomer) with probe at the same concentration; 50 mM TES, 100 mM NaCl, 0.01% Tween-20, pH 7.4; KD,apparent corrected for the probe. The following applies: both partners purified. Background: In fluorescence polarisation assays a small probe gives low polarisation when free and higher when bound to something large.

The target in another assay is T1, human S100A5 (human, UniProt P33763 1-92).
T1 sequence: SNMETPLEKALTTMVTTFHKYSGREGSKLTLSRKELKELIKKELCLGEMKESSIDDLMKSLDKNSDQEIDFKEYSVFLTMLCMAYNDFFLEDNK
Described as above. Particulars: both partners purified.

Primed or numbered codes have the meaning given here. Ends that are not written are not given here. 5FAM′ = 5-carboxyfluorescein Bounds are passed on as bounds.

B1: probe peptide 5FAM-GFDWRWGMEALTGGGSAE (peptide)
peptide: {5FAM′}-GFDWRWGMEALTGGGSAE
notes: also called fluorescently labeled probe peptide; source: synthetic peptide, bought: Genscript (95% purity)
In the case of B1, the binding result in the assay with human S100A6 and in the assay with human S100A5 was “binds” each time.

B2: unlabeled probe peptide GFDWRWGMEALTGGGSAE (peptide)
peptide: GFDWRWGMEALTGGGSAE
notes: the methods name only the nine test peptides and the probe as ordered from Genscript
As for B2, the Kd with human S100A6 came out at 12.4 ± 2 µM; with human S100A5, 2.6 ± 2 µM.

B3: peptide SRQTTSTHEWVVGGGSAE (peptide)
chain: SRQTTSTHEWVVGGGSAE
modifications: synthetic unlabelled peptide with free N-terminus; C-terminal state not printed. The Methods print the full 18-mer (12-mer + GGGSAE flank, matching the stated library design); the Results form with …
As to B3, the Kd with human S100A5 is > 1000 µM.
